{"source": "patent US20140234868A1", "about": "“USE FOR GLYCOLIPOPROTEIN GINTONIN, ISOLATED AND IDENTIFIED FROM GINSENG, AS A NATURAL MEDICAL-PLANT DERIVED LIGAND” (KONKUK UNIVERSITY INDUSTRIAL COOPERATION CORP., priority 2011, published 2014)", "key": {"LPA2 receptor": {"molecular_target": "LPA2 receptor (Homo sapiens, UniProt Q9HBW0)", "sequence (Q9HBW0 whole entry)": "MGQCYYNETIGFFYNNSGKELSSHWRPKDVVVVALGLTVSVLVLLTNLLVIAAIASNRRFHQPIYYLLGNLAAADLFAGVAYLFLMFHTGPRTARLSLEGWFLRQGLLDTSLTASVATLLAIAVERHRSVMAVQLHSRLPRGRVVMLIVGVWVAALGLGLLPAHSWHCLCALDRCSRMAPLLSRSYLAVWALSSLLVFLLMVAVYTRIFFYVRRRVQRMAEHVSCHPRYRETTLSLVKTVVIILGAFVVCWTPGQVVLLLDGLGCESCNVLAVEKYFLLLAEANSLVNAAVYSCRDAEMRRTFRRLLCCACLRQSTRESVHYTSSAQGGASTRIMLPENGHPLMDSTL", "experiment": "Intracellular free Ca2+ (Fura-2AM) in LPA2-expressing B103 cells", "assay_type": "cell-based", "set-up": "host or cells: B103 rat neuroblastoma cells", "excerpt": "LPA family receptors are endogenous to cells of most organs. B103 rat neuroblastoma cells, known as LPA receptor-null cells (Valentine et al., Biochim Biophys Acta 1780. 597-605) were transiently transfected with a plasmid (vector) carrying one of genes coding for LPA1(edg-2), LPA2(edg-4), LPA3(edg-7), LPA4, LPA5 and LPA6 receptors or a plasmid carrying none of them (empty vector). Two or three days after transfection, the cells are suspended, and made permeable. Then, the permeable cells are treated with Fura-2AM, a fluorescent dye binding to calcium, and then with gintonin, followed by spectrofluorephotometry to examine whether gintonin induces an increase in intracellular free Ca^2+ level.\n(1) preparing large quantities of plasmids carrying respective LPA family receptor genes and an empty plasmid carrying none of them through amplification and purification (maxi-preparation); (2) verifying the expression of LPA receptors wherein B103 cells are transfected with haematoglutin (HA)-tagged LPA receptors, and then subjected to Western blotting analysis using an anti-HA primary antibody and a horseradish peroxidase (HRP)-conjugated secondary antibody to develop a color; (3) verifying the expression of LPA receptors wherein B1-3 cells are transfected with haematoglutin (HA)-tagged LPA receptors, and then subjected to confocal laser microscopy using an anti-HA antibody and a fluorescence dye Cy3-conjugated secondary antibody; (4) transfecting the empty plasmid and each of the plasmids carrying LPA family receptor genes into B103 cells; (5) treating the transfected B103 cells with trypsin (0.05% trypsin with EDTA, w/v) 2-3 days post-transfection, to give a cell suspension; (6) culturing the suspended B103 cells with Fura-2AM (2.5 μM); and (7) treating the suspended B103 cells with gintonin and quantifying a change in intracellular free Ca^2+ level in a cuvette by spectrofluorephotometry using Fura-2AM.\nHuman LPA (lysophosphatidic acid) receptor subtypes, orphan GPCRs (G protein coupled receptors) and plasmids carrying GPCRs were purchased from Missouri S&T resource Center (www.cDNA.org).\nThe transient transfection of LPA receptor subtypes was carried out with the aid of Lipofectamine 2000 of Invitrogen. A plasmid (10.8 μg) carrying each LPA receptor (LPA1, LPA2, LPA3, LPA4, LPA5, and LPA6) was transfected into B103 cells grown in 10-cm dishes, and incubated for 2 days prior for use in experiments.\nIn this Example, gintonin, or ginsenoside Rb1 or Rg1 was examined for its ability to induce a transient increase of [Ca^2+]i in Fura-2AM-loaded B103 cells which were transfected with LPA receptors and in Fura-2AM-loaded B103 cells which were not transfected with LPA receptors. […]"}, "mice": {"system": "mice", "experiment": "Water maze test, scopolamine-caused spatial cognition impairment", "assay_type": "in vivo, mouse", "protocol": "The Moths water maze set up contained a round water pool (45 cm deep with a diameter of 90 cm) filled with milk-mixed water (22±1° C.) to a depth of 30 cm. It was placed in a dark, sound-shielded room in which various visual cues were established. A white platform (6 cm in diameter, 29 cm in height) was inside the pool, with the top thereof 1 cm below the water surface in the center of one quadrant of the maze\nOn day 1, the mice were trained to swim for 60 sec. Subsequently, the training was conducted four times a day for four consecutive days, with the platform inside the pool. When the mouse reached the platform, it was allowed to sit on the platform only for 10 sec. If the failed in reaching the platform within 60 sec, it was guided to reach the platform and stay for 10 sec thereon. Afterwards, the mouse was returned back to the home cage and allowed to dry its body under an IR lamp. The time interval between trials was 30 sec.\nThe time to reach the hidden platform was recorded in each trial using a video camera-based Ethovision System (Nodulus, Wageningen, the Netherlands).\nFor each training trial, the mouse was placed into the pool at one quadrant at positions which were different day by day. One day after the final training trial, the mouse was evaluated. In this regard, after the platform was removed, the mouse was allowed to swim for 60 sec in search for the platform, and the time to swim in the quadrant where the platform was located was recorded. Gintonin (25, 50, or 100 mg/kg, p.o.) in physiological saline was administered 1 hr before test, every day. Tacrine (10 mg/kg, p.o.) was used as a positive control. Memory impairment was induced by scopolamine (0.9 mg/kg i.p.) 30 min after gintonin administration. For a negative control, only physiological saline was administered.\nAn examination was made of simple spatial reasoning. To this end, while the mice were allowed to swim in the absence of the rescue platform in the pool, the time period during which the mice swam in the quadrant where the rescue platform had been located was recorded."}, "endogenous CaCC": {"system": "endogenous CaCC", "settings": "Xenopus oocytes; Pyo et al. 2011; cited from earlier work"}}}
{"molecule": "gintonin: ginseng-derived glycolipoprotein; structural protein of ginseng major latex-like protein (MLP151) and ribonuclease-like storage proteins; crude gintonin used in tests (protein) chain 1: MGLTGKLICQTGIKSDGDVFHELFGTRPHHVPNITPANIQGCDLHEGEFGKVGSVVIWNYSIDGNAMIAKEEIVAIDEEDKSVTFKVVEGHLFEEFKSIVFSVHVDTKGEDNLVTWSIDYEKLNESVKDPTSYLDFLLSVTRDIEAHHLPK chain 2: RSDYPWAMFALRLQWPAGFCEVNNACDTKSLLNTFTIHGLYPYNAKGTPALYCDGTAFDVNSVSDFLAEMHLAWPSHETNTEDIQFWEHEWKKHGRCSEALLKQTDYFRTALAFRKAFDIVGLLNQEGIYPNNDLYRPKMIKEAIKKHLNAVPEIDFTKNENSEYVLTDINVCVNQQATRFVDCPTDDATDDYRLKFVRLPSKMKFADPRTNSII", "values": [{"measurement": "EC50", "setting": "LPA2 receptor; LPA2 receptor, B103 cells, read-out: EC50, LPA receptor-mediated intracellular calcium increase", "result": "4 ± 0.4", "unit": "pM"}, {"measurement": "increase in intracellular calcium level", "setting": "LPA2 receptor; gintonin 1 μg/ml, LPA2-expressing B103 cells", "result": "208.3 ± 13.0", "unit": "µM"}, {"measurement": "swimming time in the quadrant where the platform had been located", "setting": "mice; gintonin 25 mg/kg p.o. + scopolamine", "result": "21.33 ± 3.13", "unit": "s"}, {"measurement": "swimming time in the quadrant where the platform had been located", "setting": "mice; gintonin 50 mg/kg p.o. + scopolamine", "result": "24.53 ± 3.91", "unit": "s"}, {"measurement": "swimming time in the quadrant where the platform had been located", "setting": "mice; gintonin 100 mg/kg p.o. + scopolamine", "result": "25.17 ± 4.43", "unit": "s"}, {"measurement": "latent time to reach hidden platform", "setting": "mice; gintonin 25, 50, 100 mg/kg p.o. + scopolamine, day 1 to day 4", "result": "reduce the latent time extended by scopolamine significantly and in a dose-dependent manner"}, {"measurement": "CaCC activation", "setting": "endogenous CaCC", "result": "activate endogenous Ca^2+-activated channel (CaCC)"}]}
